Results as given in paper PMC9166750 (Scientific Reports, 2022).

B1: syntaxin-3b cytoplasmic domain (residues 1–264) with C-terminal Avi-tag, wild type (domain or fragment, mouse, UniProt Q64704-2 1-264, looked up)
chain: MKDRLEQLKAKQLTQDDDTDEVEIAIDNTAFMDEFFSEIEETRLNIDKISEHVEEAKKLYSIILSAPIPEPKTKDDLEQLTTEIKKRANNVRNKLKSMEKHIEEDEVRSSADLRIRKSQHSVLSRKFVEVMTKYNEAQVDFRERSKGRIQRQLEITGKKTTDEELEEMLESGNPAIFTSGIIDSQISKQALSEIEGRHKDIVRLESSIKELHDMFMDIAMLVENQGAMIDRIENNMDQSVGFVERAVADTKKAVKYQSEARRKK
modifications: Alexa 488 (NHS ester) at the N-terminal primary amino group in the anisotropy assays; biotin (NHS-biotin) at the N-terminal primary amino group in the pull-downs
notes: syntaxin-3b (splice isoform 3b of syntaxin-3), cytoplasmic domain, residues 1-264; Gene synthesized and inserted into pJ414 (ATUM); The two native cysteines lie in the transmembrane region, which the Avi-tag replaces; also called SX-3b; WT syntaxin-3b; source: E. coli BL21 (DE3*), purified (Ni-NTA, TEV cleavage, HiTrap Q); not shown: His6, N-terminal, cleaved

Key:
[1] = biological target: syntaxin-1a cytoplasmic domain (residues 1–265) with C-terminal Avi-tag (UniProt P32851); assay: pull-down; syntaxins biotinylated at the N-terminal amino group on neutravidin agarose beads; about 300 μg Munc18-1 incubated 1 h, washed, then 500 μg SNAP-25A 1 h at room temperature, washed with TBS; SDS-PAGE, Coomassie, Munc18-1 and SNAP-25 bands normalised to the syntaxin bands (ImageJ)
[2] = biological target: syntaxin-1a cytoplasmic domain (residues 1–265) with C-terminal Avi-tag (UniProt P32851); assay: fluorescence polarisation; ensemble fluorescence anisotropy of syntaxins with Munc18 (Supplemental Fig. 3); estimated Kd; conditions of this titration not told
[3] = biological target: syntaxin-1a cytoplasmic domain (residues 1–265) with C-terminal Avi-tag (UniProt P32851); assay: fluorescence polarisation; bulk fluorescence anisotropy; Alexa 488-labelled syntaxin about 0.5 μM in TBS (20 mM Tris pH 7.5, 150 mM NaCl, 0.5 mM TCEP), unlabelled SNAP-25A 0-0.900 μM, about 15 min at room temperature, 96 well plate; curves fit with Hill equations to estimate Kd
[4] = biological target: syntaxin-3b (residues 1–264)-Avi, T14E, double-cysteine construct labelled with FRET dyes (mouse) (UniProt Q64704); assay: FRET or BRET; single-molecule FRET within syntaxin-3b (donor and acceptor on two cysteines), tethered by C-terminal biotin to streptavidin on a PEG surface; 10 μM SNAP-25 and synaptobrevin-2 (1-96) in solution; low FRET (open) read as SNARE complex
[5] = biological target: syntaxin-3b (residues 1–264)-Avi, wild type, double-cysteine construct labelled with FRET dyes (mouse) (UniProt Q64704); assay: as above
Munc18-1 = biological target: T1, Munc18-1 (UniProt P61765 1-594); assay: fluorescence polarisation; ensemble fluorescence anisotropy of syntaxins with Munc18 (Supplemental Fig. 3); estimated Kd; conditions of this titration not told; conditions: both partners purified
T1 construct: The methods describe no plasmid for Munc18-1; only its tag cleavage and gel filtration are told; source: E. coli BL21 (DE3*), purified (Ni-NTA, TEV cleavage, Superdex 200 gel filtration)

| Molecule | fold increase of SNARE complex formation against WT syntaxin-3b [4] [fold] | percent of molecules that formed ternary SNARE complex [5] [%] | further results |
| --- | --- | --- | --- |
| Munc18-1 (from UniProt P61765 1-594) (natural protein) |  |  | percent decrease of binary t-SNARE complex formation with SNAP-25 in the presence of Munc18-1 [1]: 70%; Kd [2]: 6.6 nM |
| SNAP-25, full length (from UniProt P60881-2 1-206) (natural protein) | 2 | 50 | Kd [3]: 161 nM |
| synaptobrevin-2 cytoplasmic domain (residues 1–96) (from UniProt P63045 1-96) (domain or fragment) | 2 | 50 |  |
| B1 |  |  | Kd (Munc18-1): 9.6 nM |
